One assay has as its target MD65 IgG-YTE (human). Kind of assay: BLI.
In another assay the target is human FcRn (human) (UniProt P55899). As to the kind of experiment: BLI; pH 6.0.

“human FcRn (from UniProt P55899 24-297) (receptor)”: in the assay with MD65 IgG-YTE (human), the fold change of affinity (steady state) against MD65 IgG came out at 10 fold and the fold change of on-rate against MD65 IgG was found to be 3 fold. As to MD65 IgG-YTE, the Kd with human FcRn (human) was 20 nM. This lies in the double-digit nanomolar range.

The values are drawn from PMC7878817.
